Measurements from publication doi:10.1101/2023.07.17.549284.

Target: T1, ACADVL (mouse (endogenous in heart and kidney)), P50544
T1 chain: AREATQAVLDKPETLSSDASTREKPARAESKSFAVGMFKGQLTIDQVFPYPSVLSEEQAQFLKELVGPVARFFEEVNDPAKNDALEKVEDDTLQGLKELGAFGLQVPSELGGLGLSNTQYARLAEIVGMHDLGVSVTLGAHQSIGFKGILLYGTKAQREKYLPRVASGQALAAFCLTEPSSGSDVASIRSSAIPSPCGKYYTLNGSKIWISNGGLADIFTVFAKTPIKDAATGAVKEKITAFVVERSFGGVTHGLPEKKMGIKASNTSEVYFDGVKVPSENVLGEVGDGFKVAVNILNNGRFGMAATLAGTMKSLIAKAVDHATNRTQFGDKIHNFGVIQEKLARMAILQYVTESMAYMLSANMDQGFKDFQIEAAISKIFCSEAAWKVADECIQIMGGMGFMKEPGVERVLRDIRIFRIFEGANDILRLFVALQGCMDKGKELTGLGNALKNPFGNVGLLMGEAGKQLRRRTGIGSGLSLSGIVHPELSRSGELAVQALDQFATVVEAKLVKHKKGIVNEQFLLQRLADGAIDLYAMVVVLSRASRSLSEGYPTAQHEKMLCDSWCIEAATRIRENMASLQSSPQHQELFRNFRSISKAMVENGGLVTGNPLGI
Assay: cryo-EM structure
Settings: remark: other sources report otherwise

B1: ACADVL, P50544 42-656 (natural protein)
chain: AREATQAVLDKPETLSSDASTREKPARAESKSFAVGMFKGQLTIDQVFPYPSVLSEEQAQFLKELVGPVARFFEEVNDPAKNDALEKVEDDTLQGLKELGAFGLQVPSELGGLGLSNTQYARLAEIVGMHDLGVSVTLGAHQSIGFKGILLYGTKAQREKYLPRVASGQALAAFCLTEPSSGSDVASIRSSAIPSPCGKYYTLNGSKIWISNGGLADIFTVFAKTPIKDAATGAVKEKITAFVVERSFGGVTHGLPEKKMGIKASNTSEVYFDGVKVPSENVLGEVGDGFKVAVNILNNGRFGMAATLAGTMKSLIAKAVDHATNRTQFGDKIHNFGVIQEKLARMAILQYVTESMAYMLSANMDQGFKDFQIEAAISKIFCSEAAWKVADECIQIMGGMGFMKEPGVERVLRDIRIFRIFEGANDILRLFVALQGCMDKGKELTGLGNALKNPFGNVGLLMGEAGKQLRRRTGIGSGLSLSGIVHPELSRSGELAVQALDQFATVVEAKLVKHKKGIVNEQFLLQRLADGAIDLYAMVVVLSRASRSLSEGYPTAQHEKMLCDSWCIEAATRIRENMASLQSSPQHQELFRNFRSISKAMVENGGLVTGNPLGI
B1 showed a stoichiometry N of 2.
